Test results published in PMC4716839.

Columns and labels:
[1] = target: Rpa heterotrimer (Rpa70/Rpa32/Rpa14) (Mus musculus) (UniProt Q8VEE4+Q62193+Q9CQ71); experiment: bead pull-down; conditions: Dna2 D278A added after Rpa loading; EMSA: 20 mM Tris-HCl pH 8.0, 80 mM NaCl, 0.3 mM TCEP, 0.2 mg/mL BSA, 2% glycerol, on ice 30 min, 0.075 or 0.3 nM 32P-DNA; 4% native PAGE, 1x TB, 4 C
[2] = target: mouse Rpa heterotrimer (Rpa70, Rpa32, Rpa14) (mouse) (UniProt Q8VEE4)
mouse Rpa heterotrimer (Rpa70, Rpa32, Rpa14) (mouse), sequence (Q8VEE4 whole entry, chain 1 of 3): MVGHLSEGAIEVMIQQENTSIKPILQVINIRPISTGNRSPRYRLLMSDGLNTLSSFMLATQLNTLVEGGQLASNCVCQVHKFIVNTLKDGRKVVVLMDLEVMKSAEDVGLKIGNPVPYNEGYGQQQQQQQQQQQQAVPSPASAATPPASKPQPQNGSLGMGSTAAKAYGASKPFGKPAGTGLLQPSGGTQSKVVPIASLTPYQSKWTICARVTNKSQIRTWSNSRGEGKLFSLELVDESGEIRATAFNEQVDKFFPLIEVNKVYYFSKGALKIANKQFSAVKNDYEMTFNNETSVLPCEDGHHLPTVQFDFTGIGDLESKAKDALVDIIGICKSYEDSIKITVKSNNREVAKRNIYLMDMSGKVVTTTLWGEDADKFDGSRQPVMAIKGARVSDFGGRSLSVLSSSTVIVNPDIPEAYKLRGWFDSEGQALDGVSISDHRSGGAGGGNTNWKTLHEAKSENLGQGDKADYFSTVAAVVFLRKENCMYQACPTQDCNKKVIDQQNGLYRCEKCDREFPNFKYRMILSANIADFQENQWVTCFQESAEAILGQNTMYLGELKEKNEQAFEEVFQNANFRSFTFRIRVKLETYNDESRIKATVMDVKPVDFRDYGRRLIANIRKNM
mouse Rpa heterotrimer (Rpa70, Rpa32, Rpa14) (mouse), sequence (Q62193 whole entry, chain 2 of 3, further chain): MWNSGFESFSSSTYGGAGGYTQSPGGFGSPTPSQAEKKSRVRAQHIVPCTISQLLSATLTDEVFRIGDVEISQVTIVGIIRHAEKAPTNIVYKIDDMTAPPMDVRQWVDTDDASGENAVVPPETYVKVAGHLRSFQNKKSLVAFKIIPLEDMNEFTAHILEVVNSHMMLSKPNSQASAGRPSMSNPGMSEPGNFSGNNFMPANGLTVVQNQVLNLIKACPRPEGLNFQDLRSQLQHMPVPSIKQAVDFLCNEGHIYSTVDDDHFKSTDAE
mouse Rpa heterotrimer (Rpa70, Rpa32, Rpa14) (mouse), sequence (Q9CQ71 whole entry, chain 3 of 3, further chain): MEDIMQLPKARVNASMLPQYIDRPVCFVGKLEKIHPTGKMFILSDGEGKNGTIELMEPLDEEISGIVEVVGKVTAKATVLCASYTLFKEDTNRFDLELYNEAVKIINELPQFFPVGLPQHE

Rpa heterotrimer (Rpa70/Rpa32/Rpa14) (Mus musculus), sequence (Q8VEE4 whole entry, chain 1 of 3): as the sequence (Q8VEE4 whole entry, chain 1 of 3) above
Rpa heterotrimer (Rpa70/Rpa32/Rpa14) (Mus musculus), sequence (Q62193 whole entry, chain 2 of 3): as the sequence (Q62193 whole entry, chain 2 of 3, further chain) above
Rpa heterotrimer (Rpa70/Rpa32/Rpa14) (Mus musculus), sequence (Q9CQ71 whole entry, chain 3 of 3): as the sequence (Q9CQ71 whole entry, chain 3 of 3, further chain) above
α1-deleted mouse Dna2, sequence (Q6ZQJ5 1-1056, stated change not applied): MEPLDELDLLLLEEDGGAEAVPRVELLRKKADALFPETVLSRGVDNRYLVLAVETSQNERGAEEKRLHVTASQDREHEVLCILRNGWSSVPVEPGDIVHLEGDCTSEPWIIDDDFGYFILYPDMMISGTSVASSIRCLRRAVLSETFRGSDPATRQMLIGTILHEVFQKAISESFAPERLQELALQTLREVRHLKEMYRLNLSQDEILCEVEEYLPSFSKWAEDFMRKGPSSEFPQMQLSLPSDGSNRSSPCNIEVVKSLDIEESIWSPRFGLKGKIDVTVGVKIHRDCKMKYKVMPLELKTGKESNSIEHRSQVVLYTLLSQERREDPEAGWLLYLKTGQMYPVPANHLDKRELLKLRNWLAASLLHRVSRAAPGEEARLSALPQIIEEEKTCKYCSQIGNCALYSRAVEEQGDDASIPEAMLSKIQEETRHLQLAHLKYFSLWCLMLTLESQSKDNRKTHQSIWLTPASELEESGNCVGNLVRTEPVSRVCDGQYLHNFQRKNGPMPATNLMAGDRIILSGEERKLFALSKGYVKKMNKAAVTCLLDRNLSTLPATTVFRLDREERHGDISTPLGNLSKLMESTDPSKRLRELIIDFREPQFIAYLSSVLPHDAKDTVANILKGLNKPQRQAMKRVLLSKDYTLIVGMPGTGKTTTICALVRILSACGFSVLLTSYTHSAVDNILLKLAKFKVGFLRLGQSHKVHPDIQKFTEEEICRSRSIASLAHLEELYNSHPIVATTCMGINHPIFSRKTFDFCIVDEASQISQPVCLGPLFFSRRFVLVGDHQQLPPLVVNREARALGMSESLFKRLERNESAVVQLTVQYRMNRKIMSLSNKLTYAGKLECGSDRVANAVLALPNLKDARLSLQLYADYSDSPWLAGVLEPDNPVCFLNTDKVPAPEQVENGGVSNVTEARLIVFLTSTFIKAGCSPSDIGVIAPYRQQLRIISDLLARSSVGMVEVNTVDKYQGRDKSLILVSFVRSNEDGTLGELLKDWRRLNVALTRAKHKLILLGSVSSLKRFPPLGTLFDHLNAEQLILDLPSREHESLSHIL

Substance | binding signal (% reduction of bound Rpa by Dna2 D278A) [1] | nuclease activity: cleavage of the Rpa-coated 5’ stem-loop overhang substrate 5’SL24 (15 nM, 15 nM Rpa), fold reduction compared to intact Dna2 [2]
5'-(dT)26 overhang DNA, biotinylated | 30 | –
α1-deleted mouse Dna2 (from UniProt Q6ZQJ5 1-1056) (enzyme) | – | 2 fold
3'-(dT)26 overhang DNA, biotinylated | 5 | –
